± gives the uncertainty stated by the source.
Experiment: self-splicing fitness, log relative to wild type (ln ratio); higher = more splicing; Tetrahymena group I intron in knt gene, E. coli kanamycin selection, DiMSum; sequences stand for … in CUCUCU…GGAGGGAAAAGUUAUCAGGCAUGCACCUGGUAGCUAGUCUUUAAACCAAUAGAUUGCAUCGGUUUAAAAGGCAAGACCGUCAAAUUGCGGGAAAGGGGUCAACAGCCGUUCAGUACCAAGUCUCAGGGGAAACUUUGAGAUGGCCUUGCAAAGGGUAUGGUAAUAAGCUGACGGACAUGGUCCUAACCACGCAGCCAAGUCCUAAGUCAACAGAUCUUCUGUUGAUAUGGAUGCAGUUCACAGACUAAAUGUCGGUCGGGGAAGAUGUAUUCUUCUCAUAAGAUAUAGUCGGACCUCUCCUUAAUGGGAGCUAGCGGAUGAAGUGAUGCAACACUGGAGCCGCUGGGAACUAAUUUGUAUGCGAAAGUAUAUUGAUUAGUUUUGGAGUACUCGUGGUCG
How it was run: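 Library with all eight P1ex-region intron nucleotides randomised, intron inside the knt kanamycin-resistance gene on pET-22b(+), in E. coli BL21(DE3). Cells grew overnight at 37°C or 30°C on LB agar with or without 25 μg/mL kanamycin (plus 100 μg/mL carbenicillin, 50 μM IPTG, 0.2% rhamnose), in six replicate transformations. Pooled colonies were amplicon-sequenced on Illumina HiSeq 2500. DiMSum fitness is the error-weighted combination of wild-type-normalised replicate fold changes, kanamycin versus none.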

Sequence	self-splicing fitness (ln) (30 °C)	self-splicing fitness (ln) (37 °C)
CACAAGCAAUAUUACGAAGG	-1.45 ± 0.096	-0.993 ± 0.12
GUGGAGCAAUAUUACGCUUA	-1.86 ± 0.14	-1.04 ± 0.22
UCAUAGCAAUAUUACGGGGU	-4.08 ± 0.27	-1.67 ± 0.18
UACAAGCAAUAUUACGAGGA	-2.98 ± 0.2	-1.8 ± 0.14
CUUUAGCAAUAUUACGUAGU	-3.52 ± 0.2	-2.2 ± 0.22
UGCCAGCAAUAUUACGCAAA	-2.41 ± 0.19	-1.5 ± 0.17
GACAAGCAAUAUUACGCAUU	-2.91 ± 0.089	-1.96 ± 0.11
UAUAAGCAAUAUUACGCUAU	-3.91 ± 0.28	-1.92 ± 0.18
GAUGAGCAAUAUUACGUCAA	-3.32 ± 0.28	-3.44 ± 0.37
GCAUAGCAAUAUUACGGGAA	-2.52 ± 0.21	-0.707 ± 0.12
GGGAAGCAAUAUUACGGUUU	-1.89 ± 0.099	-1.07 ± 0.1
GUGUAGCAAUAUUACGGUUA	-0.588 ± 0.14	-0.936 ± 0.17
GUCAAGCAAUAUUACGAUAG	-4.6 ± 0.42	-3.02 ± 0.47
AACGAGCAAUAUUACGUAUC	-3.69 ± 0.4	-3.55 ± 0.46
CCCGAGCAAUAUUACGUGUG	-3.24 ± 0.12	-1.86 ± 0.098
UGACAGCAAUAUUACGUUAC	-3.81 ± 0.35	-3.32 ± 0.31
GAUUAGCAAUAUUACGUCCG	-1.73 ± 0.25	-2.61 ± 0.41
ACACAGCAAUAUUACGCUUG	-1.24 ± 0.063	-0.733 ± 0.076
UAUAAGCAAUAUUACGUUAG	-2.08 ± 0.14	-0.812 ± 0.14
CAGGAGCAAUAUUACGUCUC	–	-3.07 ± 0.3
UAUGAGCAAUAUUACGACAG	–	-1.78 ± 0.36

Sequence	self-splicing fitness (ln) (30 °C)	self-splicing fitness (ln) (37 °C)
CCAUAGCAAUAUUACGAAAU	-2.98 ± 0.37	–
UGGUAGCAAUAUUACGCUAG	-2.07 ± 0.13	-1.82 ± 0.16
UAAAAGCAAUAUUACGUUCG	-0.052 ± 0.085	-0.0686 ± 0.11
UUUGAGCAAUAUUACGCAAC	–	-1.71 ± 0.26
GGACAGCAAUAUUACGGAAU	-1.19 ± 0.089	-0.191 ± 0.12
UGCGAGCAAUAUUACGUAUG	-3.11 ± 0.16	-2.29 ± 0.21
ACCUAGCAAUAUUACGAGUC	-2.53 ± 0.3	-2.78 ± 0.48
CGCGAGCAAUAUUACGCGAU	-3.96 ± 0.24	-3.09 ± 0.27
GCCUAGCAAUAUUACGGUAG	-3.79 ± 0.18	-2.99 ± 0.27
GCGUAGCAAUAUUACGUCGG	-2.69 ± 0.21	-3.18 ± 0.24
CACGAGCAAUAUUACGAACA	–	-2.04 ± 0.47
AUGAAGCAAUAUUACGUCCU	-0.113 ± 0.093	0.0551 ± 0.11
UACUAGCAAUAUUACGCCUG	-0.00481 ± 0.11	1.03 ± 0.14
UCGUAGCAAUAUUACGGUGA	-1.57 ± 0.096	-1.11 ± 0.1
UACGAGCAAUAUUACGAAUC	-4.18 ± 0.34	-2.03 ± 0.39
CGGGAGCAAUAUUACGCAGG	-3.04 ± 0.36	-0.973 ± 0.27
UCUAAGCAAUAUUACGACGG	0.00998 ± 0.076	0.286 ± 0.11
CUAAAGCAAUAUUACGCGCC	-2.84 ± 0.23	-2.6 ± 0.4
AGUCAGCAAUAUUACGAGUC	-2.45 ± 0.11	-1.09 ± 0.11
GAACAGCAAUAUUACGGUAU	-0.973 ± 0.053	-0.269 ± 0.074
UUUUAGCAAUAUUACGGAGA	-1.93 ± 0.35	-1.62 ± 0.27

Sequence	self-splicing fitness (ln) (30 °C)	self-splicing fitness (ln) (37 °C)
GGACAGCAAUAUUACGGUUU	-2.12 ± 0.072	-0.504 ± 0.073
GAACAGCAAUAUUACGGCUG	-2.78 ± 0.14	-2.06 ± 0.15
UCUCAGCAAUAUUACGAGUU	-2.32 ± 0.11	-1.13 ± 0.099
UCCAAGCAAUAUUACGACGA	-0.735 ± 0.07	0.11 ± 0.096
UAACAGCAAUAUUACGUAUU	-3.38 ± 0.14	-1.94 ± 0.18
CCAAAGCAAUAUUACGAUCU	-2.43 ± 0.14	-2.97 ± 0.35
GUGUAGCAAUAUUACGACCA	-1.47 ± 0.28	-0.121 ± 0.43
UGCUAGCAAUAUUACGAUGC	-4.2 ± 0.34	–
UCACAGCAAUAUUACGGUAG	-1.18 ± 0.085	-0.311 ± 0.1
CACUAGCAAUAUUACGUUCU	-3.24 ± 0.17	-1.39 ± 0.14
CAAAAGCAAUAUUACGGUCA	-1.83 ± 0.13	0.0762 ± 0.1
AUAUAGCAAUAUUACGGUUU	-1.31 ± 0.091	-0.854 ± 0.11
AUUCAGCAAUAUUACGUUGG	-2.45 ± 0.12	-1.94 ± 0.13
AGUAAGCAAUAUUACGUCGA	-2.11 ± 0.21	-1.61 ± 0.2
UAUCAGCAAUAUUACGCAAU	-1.96 ± 0.11	-0.74 ± 0.1
GAAUAGCAAUAUUACGAAGU	–	-2.45 ± 0.2
GUCGAGCAAUAUUACGUGCG	-2.9 ± 0.17	-2 ± 0.17
UGAGAGCAAUAUUACGGGAU	–	-1.77 ± 0.37
CUAUAGCAAUAUUACGUAAG	-0.717 ± 0.058	0.183 ± 0.084
AAUUAGCAAUAUUACGAUAC	-1.24 ± 0.36	-0.477 ± 0.21

Source: the supplement of paper PMC7877785
